The results in this text go back to patent US9187525B2, “Methods of treating ophthalmic diseases using NPR-B agonists” (Shire Orphan Therapies GmbH, dated 2015).

Numbered stars: 1 amine (or outer) side, 2 acyl side, 3 side chain; on linkers, the order of the positions; unused ones are H or OH. Bridge positions count the residues as written; N and C are the ends. Square brackets hold non-standard residues; d marks the D form. Primed or numbered codes have the meaning given here. Ends that are not written are not given here. * marks the point of attachment. 5118 = (1R,2S)-ethyl 2-aminocyclohexanecarboxylate, CCOC(=O)[C@@H]1CCCC[C@@H]1N*; 5119 = (1R,2R)-ethyl 2-aminocyclohexanecarboxylate, CCOC(=O)[C@@H]1CCCC[C@H]1N*; 5116 = (1S,2R)-2-aminocyclohexanecarboxamide, NC(=O)[C@H]1CCCC[C@H]1N*; 1860″ = (1R,2R)-2-methylcyclohexanamine, C[C@@H]1CCCC[C@H]1N*; 5164 = (S)-3-amino-1-ethylazepan-2-one, CCN1CCCC[C@H](N*)C1=O; Sni = (S)-nipecotic acid, O=C([C@H]1CCCN([*:1])C1)[*:2]; 5121 = 1-propyl-butyl-amine, CCCC(CCC)N*; Octanoyl = CCCCCCCC(=O)*; 1859 = not defined here; 1906 = not defined here; 1934 = not defined here; 3791 = not defined here; 5163 = not defined here; 873 = not defined here; Che = not defined here; ala = not defined here; pro = not defined here; Occ = octanoic acid

Holding throughout (experiment): cell-based or functional assay
Assay [1] deals with T1, natriuretic peptide receptor-B (human).
T1 chain: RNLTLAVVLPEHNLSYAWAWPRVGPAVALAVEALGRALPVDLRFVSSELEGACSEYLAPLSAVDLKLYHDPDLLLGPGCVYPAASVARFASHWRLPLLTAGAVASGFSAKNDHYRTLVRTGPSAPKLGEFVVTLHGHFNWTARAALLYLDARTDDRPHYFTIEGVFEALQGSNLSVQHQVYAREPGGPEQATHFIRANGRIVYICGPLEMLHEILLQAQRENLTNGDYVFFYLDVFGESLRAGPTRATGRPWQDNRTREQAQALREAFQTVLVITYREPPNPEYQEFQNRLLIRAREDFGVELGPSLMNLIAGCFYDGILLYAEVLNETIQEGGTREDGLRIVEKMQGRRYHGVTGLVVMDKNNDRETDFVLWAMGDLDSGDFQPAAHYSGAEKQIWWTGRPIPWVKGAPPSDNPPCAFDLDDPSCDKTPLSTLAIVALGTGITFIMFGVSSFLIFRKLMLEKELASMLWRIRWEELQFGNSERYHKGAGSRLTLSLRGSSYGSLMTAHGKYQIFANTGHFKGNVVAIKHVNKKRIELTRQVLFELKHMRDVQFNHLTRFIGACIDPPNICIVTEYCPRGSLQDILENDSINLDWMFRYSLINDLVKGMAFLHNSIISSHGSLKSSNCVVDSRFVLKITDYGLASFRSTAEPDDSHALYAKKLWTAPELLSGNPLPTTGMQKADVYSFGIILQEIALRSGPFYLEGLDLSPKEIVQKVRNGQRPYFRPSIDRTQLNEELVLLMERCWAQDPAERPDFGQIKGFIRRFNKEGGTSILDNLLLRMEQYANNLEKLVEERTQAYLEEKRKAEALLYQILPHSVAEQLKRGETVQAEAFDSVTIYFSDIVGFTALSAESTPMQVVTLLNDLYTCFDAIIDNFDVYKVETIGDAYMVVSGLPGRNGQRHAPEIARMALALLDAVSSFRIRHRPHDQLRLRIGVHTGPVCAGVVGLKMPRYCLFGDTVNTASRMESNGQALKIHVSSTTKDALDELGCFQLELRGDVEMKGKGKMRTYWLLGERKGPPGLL

Assay [2] concerns the target T1, natriuretic peptide receptor-B.
Assay [3] addresses T2, natriuretic peptide receptor-A (Homo sapiens).
T2 chain: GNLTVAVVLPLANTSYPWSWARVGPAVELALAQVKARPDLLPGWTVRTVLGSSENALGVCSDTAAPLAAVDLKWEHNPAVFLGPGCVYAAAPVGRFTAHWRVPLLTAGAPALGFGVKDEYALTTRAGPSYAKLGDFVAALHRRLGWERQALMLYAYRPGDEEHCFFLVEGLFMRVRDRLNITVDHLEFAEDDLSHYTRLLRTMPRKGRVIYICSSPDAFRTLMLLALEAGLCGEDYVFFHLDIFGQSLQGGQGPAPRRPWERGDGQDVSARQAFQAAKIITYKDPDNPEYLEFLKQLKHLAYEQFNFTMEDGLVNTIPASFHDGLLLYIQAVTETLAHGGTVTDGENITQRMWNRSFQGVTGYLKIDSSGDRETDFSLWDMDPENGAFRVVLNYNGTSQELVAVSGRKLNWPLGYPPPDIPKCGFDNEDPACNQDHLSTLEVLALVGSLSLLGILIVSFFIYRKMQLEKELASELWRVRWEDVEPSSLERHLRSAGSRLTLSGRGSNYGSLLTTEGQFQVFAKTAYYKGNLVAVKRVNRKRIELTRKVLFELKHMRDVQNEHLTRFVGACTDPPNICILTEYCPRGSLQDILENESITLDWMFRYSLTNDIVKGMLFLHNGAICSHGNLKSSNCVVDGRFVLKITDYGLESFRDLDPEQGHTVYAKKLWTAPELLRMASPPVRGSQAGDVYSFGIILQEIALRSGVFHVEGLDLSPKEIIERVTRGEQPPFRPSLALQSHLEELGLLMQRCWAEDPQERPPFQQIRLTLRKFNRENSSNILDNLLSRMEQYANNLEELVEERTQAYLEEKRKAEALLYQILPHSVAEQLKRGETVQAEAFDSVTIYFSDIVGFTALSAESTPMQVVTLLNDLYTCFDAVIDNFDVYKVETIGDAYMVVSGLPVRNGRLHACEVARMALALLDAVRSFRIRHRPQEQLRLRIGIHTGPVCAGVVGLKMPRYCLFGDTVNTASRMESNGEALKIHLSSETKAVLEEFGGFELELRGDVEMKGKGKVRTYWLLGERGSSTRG

As for Octanoyl-[ala]FGLPLDRI-NH2 (reading uncertain; also: printed as Occ-ala-Phe-Gly-Leu-Pro-Leu-Asp-Arg-Ile-NH2) [JAL-0835], the “EC50 group, cGMP in GTM-3 cells” value in assay [1] is at most 15 µM.
As for GLSKGCFGLKLDRIGSMSGLGC (ligand, disulfide 6-22 (inferred)) [C-type natriuretic peptide], in assay [2], the “EC50, cyclic GMP production in GTM-3 cells” value stood at 0.0388 µM and the “Emax, cyclic GMP production in GTM-3 cells” value (“Emax, cyclic GMP production” for short) turned out to be 100%. Also, in assay [3], the “EC50, cyclic GMP production in NPR-A transfected 293-T cells” value turned out to be 1.6 µM.

B1: JAL-0841 (peptide)
peptide: Octanoyl-AFGLKLDR-5121
modifications: not fully specified (some residues); printed as Occ-ala-Phe-Gly-Leu-Lys-Leu-Asp-Arg-5121
Regarding B1, in assay [1], the “EC50 group, cGMP in GTM-3 cells” value was at most 15 µM.

B2: JAL-0839 (peptide)
peptide: Octanoyl-AFGLKLDR-{1860″}
modifications: not fully specified (some residues); printed as Occ-ala-Phe-Gly-Leu-Lys-Leu-Asp-Arg-1860
Consider B2, for which the “EC50 group, cGMP in GTM-3 cells” value in assay [1] is at most 5 µM.
As for Octanoyl-[pro]FGLPLDRI-NH2 (reading uncertain; also: printed as Occ-pro-Phe-Gly-Leu-Pro-Leu-Asp-Arg-Ile-NH2) [JAL-0836], the “EC50 group, cGMP in GTM-3 cells” value in assay [1] was at most 15 µM.

B3: JAL-0840 (peptide)
peptide: Octanoyl-AFGLKLDR[Che]
modifications: not fully specified (some residues); printed as Occ-ala-Phe-Gly-Leu-Lys-Leu-Asp-Arg-Che; reading uncertain
With B3, in assay [1], the “EC50 group, cGMP in GTM-3 cells” value was at most 15 µM.
Regarding SLRRSSCFGGRMDRIGAQSGLGCNSFRY (ligand, disulfide 7-23 (inferred)) [atrial natriuretic peptide], in assay [2], the “EC50, cyclic GMP production in GTM-3 cells” value stood at 1.63 µM and the “Emax, cyclic GMP production” value was 15%.

B4: JAL-0826 (peptide)
peptide: Octanoyl-[ala][ala]FGLKLDR[5119]
modifications: reading uncertain; also: printed as Occ-ala-ala-Phe-Gly-Leu-Lys-Leu-Asp-Arg-5119
In the case of B4, in assay [1], the “EC50 group, cGMP in GTM-3 cells” value is at most 5 µM.
On the same count and under the same terms, in the case of [Occ][Sni]FGLPLDRI-NH2 [JAL-0837] it was at most 15 µM.

B5: JAL-0834 (peptide)
peptide: Octanoyl-[ala][ala]FGLKLDR-5164
modifications: reading uncertain; also: printed as Occ-ala-ala-Phe-Gly-Leu-Lys-Leu-Asp-Arg-5164
Turning to B5, the “EC50 group, cGMP in GTM-3 cells” value in assay [1] is at most 15 µM.

B6: JAL-0801 (peptide)
peptide: Octanoyl-AAFGLKLDR[1906]
modifications: not fully specified (some residues); printed as Occ-ala-ala-Phe-Gly-Leu-Lys-Leu-Asp-Arg-1906; reading uncertain
Consider B6, for which the “EC50 group, cGMP in GTM-3 cells” value in assay [1] was at most 5 µM.
Regarding MCHFGGRMDRISCYR [mini-ANP], in assay [2], the “EC50, cyclic GMP production in GTM-3 cells” value was over 45 µM and the “Emax, cyclic GMP production” value amounted to 0%. The “EC50, cyclic GMP production in NPR-A transfected 293-T cells” value in assay [3] is 1.54 µM.

B7: JAL-0825 (peptide)
peptide: Octanoyl-[ala][ala]FGLKLDR[5116]
modifications: reading uncertain; also: printed as Occ-ala-ala-Phe-Gly-Leu-Lys-Leu-Asp-Arg-5116
Turning to B7, in assay [1], the “EC50 group, cGMP in GTM-3 cells” value is at most 15 µM.

B8: JAL-0833 (peptide)
peptide: Octanoyl-[ala][ala]FGLKLDR[5163]
modifications: reading uncertain; also: printed as Occ-ala-ala-Phe-Gly-Leu-Lys-Leu-Asp-Arg-5163
As for B8, in assay [1], the “EC50 group, cGMP in GTM-3 cells” value was at most 15 µM.

B9: JAL-0797 (peptide)
peptide: Octanoyl-AAFGLKLDR[Che]
modifications: not fully specified (some residues); printed as Occ-ala-ala-Phe-Gly-Leu-Lys-Leu-Asp-Arg-Che; reading uncertain
Consider B9, for which the “EC50 group, cGMP in GTM-3 cells” value in assay [1] is at most 5 µM.

B10: JAL-0792 (peptide)
peptide: Octanoyl-AAFGLKLDR[3791]
modifications: not fully specified (some residues); printed as Occ-ala-ala-Phe-Gly-Leu-Lys-Leu-Asp-Arg-3791; reading uncertain
Turning to B10, the “EC50 group, cGMP in GTM-3 cells” value in assay [1] was at most 15 µM.

B11: JAL-0798 (peptide)
peptide: Octanoyl-AAFGLKLDR[1859]
modifications: not fully specified (some residues); printed as Occ-ala-ala-Phe-Gly-Leu-Lys-Leu-Asp-Arg-1859; reading uncertain
For the molecule B11, the “EC50 group, cGMP in GTM-3 cells” value in assay [1] was at most 15 µM.

B12: JAL-0799 (peptide)
peptide: Octanoyl-AAFGLKLDR[1934]
modifications: not fully specified (some residues); printed as Occ-ala-ala-Phe-Gly-Leu-Lys-Leu-Asp-Arg-1934; reading uncertain
B12: the “EC50 group, cGMP in GTM-3 cells” value in assay [1] is at most 5 µM.

B13: JAL-0824 (peptide)
peptide: Octanoyl-AAFGLKLDR[873]
modifications: not fully specified (some residues); printed as Occ-ala-ala-Phe-Gly-Leu-Lys-Leu-Asp-Arg-873; reading uncertain
On to B13, for which the “EC50 group, cGMP in GTM-3 cells” value in assay [1] is at most 15 µM.

B14: JAL-0831 (peptide)
peptide: Octanoyl-[ala][ala]FGLKLDR[5118]
modifications: reading uncertain; also: printed as Occ-ala-ala-Phe-Gly-Leu-Lys-Leu-Asp-Arg-5118
For the molecule B14, in assay [1], the “EC50 group, cGMP in GTM-3 cells” value is at most 15 µM.
